Assay results: the Human Domainome abundance scans (Beltran et al. 2025)
± gives the uncertainty stated by the source.

B1: Nucleosome-remodeling factor subunit BPTF, residues 2862 to 2918; numbered along this chain, Q12830 (parent)
chain: TKKDTKLYCICKTPYDESKFYIGCDRCQNWYHGRCVGILQSEAELIDEYVCPQCQST

Variants of: B1
Test: abundance fitness (aPCA) (normalised: wild type 0, dead -1); higher = more abundant; growth selection in yeast, the domain comes from the species named
Conditions: Homo sapiens

Q: Which abundance fitness does the source give for TKKDTKLYCICKTPYDESKFYIGCDRCQCWYHGRCVGILQSEAELIDEYVCPQCQST [N29C] here?
A: -0.353 ± 0.096

Q: For TKKDTKLYCICKTPYDESKFYIGCDRCQYWYHGRCVGILQSEAELIDEYVCPQCQST [N29Y], which abundance fitness is on record?
A: -0.376 ± 0.11

Q: With TKKDTKLYCICKTPYDESKFYIGCDRCQHWYHGRCVGILQSEAELIDEYVCPQCQST [N29H] as the variant, how does the abundance fitness read?
A: -0.062 ± 0.11

Q: For TKKDTKLYCICKTPYDESKFYIGCDRCQKWYHGRCVGILQSEAELIDEYVCPQCQST [N29K], which abundance fitness is on record?
A: -0.124 ± 0.12

Q: Which abundance fitness does the source give for TKKDTKLYCICKTPYDESKFYIGCDRCQTWYHGRCVGILQSEAELIDEYVCPQCQST [N29T] here?
A: -0.191 ± 0.09

Q: For TKKDTKLYCICKTPYDESKFYIGCDRCQAWYHGRCVGILQSEAELIDEYVCPQCQST [N29A], which abundance fitness is on record?
A: 0.06 ± 0.2

Q: Which abundance fitness does the source give for TKKDTKLYCICKTPYDESKFYIGCDRCQEWYHGRCVGILQSEAELIDEYVCPQCQST [N29E] here?
A: -0.328 ± 0.29

Q: For TKKDTKLYCICKTPYDESKFYIGCDRCQVWYHGRCVGILQSEAELIDEYVCPQCQST [N29V], which abundance fitness is on record?
A: -0.064 ± 0.13

Q: For TKKDTKLYCICKTPYDESKFYIGCDRCQFWYHGRCVGILQSEAELIDEYVCPQCQST [N29F], which abundance fitness is on record?
A: -0.307 ± 0.11

Q: Which abundance fitness does the source give for TKKDTKLYCICKTPYDESKFYIGCDRCQLWYHGRCVGILQSEAELIDEYVCPQCQST [N29L] here?
A: -0.198 ± 0.099

Q: With TKKDTKLYCICKTPYDESKFYIGCDRCQSWYHGRCVGILQSEAELIDEYVCPQCQST [N29S] as the variant, how does the abundance fitness read?
A: -0.047 ± 0.074

Q: With TKKDTKLYCICKTPYDESKFYIGCDRCQRWYHGRCVGILQSEAELIDEYVCPQCQST [N29R] as the variant, how does the abundance fitness read?
A: -0.061 ± 0.071

Q: With TKKDTKLYCICKTPYDESKFYIGCDRCQMWYHGRCVGILQSEAELIDEYVCPQCQST [N29M] as the variant, how does the abundance fitness read?
A: -0.1 ± 0.21

Q: With TKKDTKLYCICKTPYDESKFYIGCDRCQGWYHGRCVGILQSEAELIDEYVCPQCQST [N29G] as the variant, how does the abundance fitness read?
A: -0.068 ± 0.12

Q: With TKKDTKLYCICKTPYDESKFYIGCDRCQIWYHGRCVGILQSEAELIDEYVCPQCQST [N29I] as the variant, how does the abundance fitness read?
A: -0.431 ± 0.11

Q: Which abundance fitness does the source give for TKKDTKLYCICKTPYDESKFYIGCDRCQQWYHGRCVGILQSEAELIDEYVCPQCQST [N29Q] here?
A: 0.089 ± 0.15

Q: Which abundance fitness does the source give for TKKDTKLYCICKTPYDESKFYIGCDRCQNWYHGECVGILQSEAELIDEYVCPQCQST [R34E] here?
A: 0.005 ± 0.14

Q: Which abundance fitness does the source give for TKKDTKLYCICKTPYDESKFYIGCDRCQNWYHGDCVGILQSEAELIDEYVCPQCQST [R34D] here?
A: 0.105 ± 0.1

Q: Which abundance fitness does the source give for TKKDTKLYCICKTPYDESKFYIGCDRCQNWYHGACVGILQSEAELIDEYVCPQCQST [R34A] here?
A: 0.026 ± 0.084

Q: Which abundance fitness does the source give for TKKDTKLYCICKTPYDESKFYIGCDRCQNWYHGFCVGILQSEAELIDEYVCPQCQST [R34F] here?
A: -0.258 ± 0.085

Q: With TKKDTKLYCICKTPYDESKFYIGCDRCQNYYHGRCVGILQSEAELIDEYVCPQCQST [W30Y] as the variant, how does the abundance fitness read?
A: 0.083 ± 0.12

Q: With TKKDTKLYCICKTPYDESKFYIGCDRCQNDYHGRCVGILQSEAELIDEYVCPQCQST [W30D] as the variant, how does the abundance fitness read?
A: -0.097 ± 0.14

Q: Which abundance fitness does the source give for TKKDTKLYCICKTPYDESKFYIGCDRCQNGYHGRCVGILQSEAELIDEYVCPQCQST [W30G] here?
A: -0.116 ± 0.09

Q: Which abundance fitness does the source give for TKKDTKLYCICKTPYDESKFYIGCDRCQNKYHGRCVGILQSEAELIDEYVCPQCQST [W30K] here?
A: 0.163 ± 0.1

Q: With TKKDTKLYCICKTPYDESKFYIGCDRCQNSYHGRCVGILQSEAELIDEYVCPQCQST [W30S] as the variant, how does the abundance fitness read?
A: -0.009 ± 0.081

Q: With TKKDTKLYCICKTPYDESKFYIGCDRCQNHYHGRCVGILQSEAELIDEYVCPQCQST [W30H] as the variant, how does the abundance fitness read?
A: 0.004 ± 0.1

Q: For TKKDTKLYCICKTPYDESKFYIGCDRCQNCYHGRCVGILQSEAELIDEYVCPQCQST [W30C], which abundance fitness is on record?
A: -0.123 ± 0.14

Q: For TKKDTKLYCICKTPYDESKFYIGCDRCQNAYHGRCVGILQSEAELIDEYVCPQCQST [W30A], which abundance fitness is on record?
A: 0.09 ± 0.078

Q: With TKKDTKLYCICKTPYDESKFYIGCDRCQNRYHGRCVGILQSEAELIDEYVCPQCQST [W30R] as the variant, how does the abundance fitness read?
A: 0.142 ± 0.076

Q: Which abundance fitness does the source give for TKKDTKLYCICKTPYDESKFYIGCDRCQNLYHGRCVGILQSEAELIDEYVCPQCQST [W30L] here?
A: 0.127 ± 0.075

Q: For TKKDTKLYCICKTPYDESKFYIGCDRCQNFYHGRCVGILQSEAELIDEYVCPQCQST [W30F], which abundance fitness is on record?
A: 0.115 ± 0.13

Q: With TKKDTKLYCICKTPYDESKFYIGCDRCQNTYHGRCVGILQSEAELIDEYVCPQCQST [W30T] as the variant, how does the abundance fitness read?
A: 0.095 ± 0.099

Q: For TKKDTKLYCICKTPYDESKFYIGCDRCQNNYHGRCVGILQSEAELIDEYVCPQCQST [W30N], which abundance fitness is on record?
A: -0.159 ± 0.1

Q: Which abundance fitness does the source give for TKKDTKLYCICKTPYDESKFYIGCDRCQNPYHGRCVGILQSEAELIDEYVCPQCQST [W30P] here?
A: -0.155 ± 0.099

Q: For TKKDTKLYCICKTPYDESKFYIGCDRCQNIYHGRCVGILQSEAELIDEYVCPQCQST [W30I], which abundance fitness is on record?
A: -0.033 ± 0.1

Q: Which abundance fitness does the source give for TKKDTKLYCICKTPYDESKFYIGCDRCQNMYHGRCVGILQSEAELIDEYVCPQCQST [W30M] here?
A: 0.037 ± 0.1

Q: For TKKDTKLYCICKTPYDESKFYIGCDRCQNWYHSRCVGILQSEAELIDEYVCPQCQST [G33S], which abundance fitness is on record?
A: -0.2 ± 0.071

Q: Which abundance fitness does the source give for TKKDTKLYCICKTPYDESKFYIGCDRCQNWYHTRCVGILQSEAELIDEYVCPQCQST [G33T] here?
A: -0.238 ± 0.13

Q: Which abundance fitness does the source give for TKKDTKLYCICKTPYDESKFYIGCDRCQNWYHMRCVGILQSEAELIDEYVCPQCQST [G33M] here?
A: -0.446 ± 0.12

Q: With TKKDTKLYCICKTPYDESKFYIGCDRCQNWYHDRCVGILQSEAELIDEYVCPQCQST [G33D] as the variant, how does the abundance fitness read?
A: -0.229 ± 0.098

Q: With TKKDTKLYCICKTPYDESKFYIGCDRCQNWYHPRCVGILQSEAELIDEYVCPQCQST [G33P] as the variant, how does the abundance fitness read?
A: 0.053 ± 0.075

Q: For TKKDTKLYCICKTPYDESKFYIGCDRCQNWYHWRCVGILQSEAELIDEYVCPQCQST [G33W], which abundance fitness is on record?
A: -0.445 ± 0.097

Q: For TKKDTKLYCICKTPYDESKFYIGCDRCQNWYHKRCVGILQSEAELIDEYVCPQCQST [G33K], which abundance fitness is on record?
A: -0.271 ± 0.15

Q: For TKKDTKLYCICKTPYDESKFYIGCDRCQNWYHIRCVGILQSEAELIDEYVCPQCQST [G33I], which abundance fitness is on record?
A: 0.011 ± 0.14

Q: With TKKDTKLYCICKTPYDESKFYIGCDRCQNWYHNRCVGILQSEAELIDEYVCPQCQST [G33N] as the variant, how does the abundance fitness read?
A: -0.357 ± 0.2

Q: For TKKDTKLYCICKTPYDESKFYIGCDRCQNWYHFRCVGILQSEAELIDEYVCPQCQST [G33F], which abundance fitness is on record?
A: -0.192 ± 0.082
